# From paper PMC2941470
# Biological target: endogenous DDX3X from HuH-7 cells (human (endogenous in HuH-7)) (UniProt O00571)
# Chain of UniProt O00571 (O00571 whole entry): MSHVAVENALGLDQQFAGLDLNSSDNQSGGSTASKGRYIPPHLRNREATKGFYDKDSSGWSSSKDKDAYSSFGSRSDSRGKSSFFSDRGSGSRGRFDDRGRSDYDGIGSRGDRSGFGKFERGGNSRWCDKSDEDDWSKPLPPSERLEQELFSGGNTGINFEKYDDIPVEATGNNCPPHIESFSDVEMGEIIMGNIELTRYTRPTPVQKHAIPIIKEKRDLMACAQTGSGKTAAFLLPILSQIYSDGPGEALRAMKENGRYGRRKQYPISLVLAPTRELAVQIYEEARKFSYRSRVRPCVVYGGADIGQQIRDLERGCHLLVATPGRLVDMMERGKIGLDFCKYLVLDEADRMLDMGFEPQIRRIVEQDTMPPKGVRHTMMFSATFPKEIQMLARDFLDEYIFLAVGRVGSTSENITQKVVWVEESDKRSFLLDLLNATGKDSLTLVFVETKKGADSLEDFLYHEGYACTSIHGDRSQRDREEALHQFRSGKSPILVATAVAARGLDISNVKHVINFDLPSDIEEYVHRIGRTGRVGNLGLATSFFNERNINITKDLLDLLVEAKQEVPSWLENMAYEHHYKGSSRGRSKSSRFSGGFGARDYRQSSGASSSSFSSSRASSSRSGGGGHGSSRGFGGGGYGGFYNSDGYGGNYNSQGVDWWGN
substance,measurement,value
GFP fusion to HCV core protein residues 16–36 (peptide),level of HCV replicon NNeo/C-5B RNA in HuH-7 cells 48 h after transient transfection (Northern blot),50%
